One block for each binder: values may come before it.
What was measured:
[1] = target: T1, recombinant human LAG3(ECD)-his (Sino Biological, Cat #: 16498-H08H) (human, UniProt P18627 23-450); assay: ELISA, coated human LAG3(ECD)-his
T1 construct: extracellular domain; Bought protein; not shown: his tag
T1 sequence (looked up): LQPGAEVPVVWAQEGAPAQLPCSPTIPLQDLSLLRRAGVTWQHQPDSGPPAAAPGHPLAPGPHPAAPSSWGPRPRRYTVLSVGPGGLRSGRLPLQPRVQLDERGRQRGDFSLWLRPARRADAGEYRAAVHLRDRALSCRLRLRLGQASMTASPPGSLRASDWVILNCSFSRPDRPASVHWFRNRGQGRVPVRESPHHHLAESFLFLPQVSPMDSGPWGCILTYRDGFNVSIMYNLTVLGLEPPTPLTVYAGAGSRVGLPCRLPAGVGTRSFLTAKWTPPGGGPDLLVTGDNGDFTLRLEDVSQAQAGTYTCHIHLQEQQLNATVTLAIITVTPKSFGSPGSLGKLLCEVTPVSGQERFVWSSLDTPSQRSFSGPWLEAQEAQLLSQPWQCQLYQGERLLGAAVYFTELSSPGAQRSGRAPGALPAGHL
Description: The wells were blocked with 200 µl of blocking buffer (PBS containing 1% BSA, 1% goat serum, and 0.05% Tween 20) for 2 hours at room temperature, and then 100 µl of serially diluted anti-LAG3 antibodies (starting from 40 µg/ml) were added to each well and incubated for 1 hour at RT. Plates were washed for 3 times with PBST (PBS+0.05% Tween 20), added with Goat-anti-mouse IgG-HRP (Sigma, US, Cat #: A9309-1 ml) diluted 5000×, and incubated for 1 hour at RT. Plates were developed with freshly prepared Ultra-TMB (BD, US, Cat #:555214) for 5 minutes at RT. Absorbance was read on a SpectraMaxR i3X (Molecular Devies, US) at 450 nm.

[2] = target: T2, recombinant mouse LAG3(ECD)-his (Sino Biological, Cat #: 53069-M08H) (mouse, UniProt Q61790 24-442); assay: ELISA, coated mouse LAG3-his
T2 construct: extracellular domain; Bought protein; also called Mouse LAG3-his; not shown: his tag
T2 sequence (looked up): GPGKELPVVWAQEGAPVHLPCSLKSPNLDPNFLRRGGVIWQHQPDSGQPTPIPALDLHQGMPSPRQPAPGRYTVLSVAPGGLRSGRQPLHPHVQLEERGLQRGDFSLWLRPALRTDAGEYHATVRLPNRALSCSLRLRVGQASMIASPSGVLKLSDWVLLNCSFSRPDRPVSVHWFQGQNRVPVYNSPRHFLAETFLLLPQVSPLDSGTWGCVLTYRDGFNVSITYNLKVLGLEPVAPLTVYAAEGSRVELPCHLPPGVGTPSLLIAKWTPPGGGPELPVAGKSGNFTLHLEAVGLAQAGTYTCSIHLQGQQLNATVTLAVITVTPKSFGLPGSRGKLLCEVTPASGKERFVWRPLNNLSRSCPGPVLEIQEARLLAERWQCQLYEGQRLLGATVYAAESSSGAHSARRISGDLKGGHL
Description: Species-cross-reactivity of the 12 LAG3 mAbs to monkey or mouse LAG3 was further tested by direct ELISA. Briefly, 50 µl of 500 ng/ml monkey LAG3(ECD)-hFc (ACRO, CN, Cat #: LA3-05252) or mouse LAG3-his (Sino Biological, CN, Cat #:53069-M08H) was coated on 96-well ELISA plates followed by incubation with 100 µl of serially diluted anti-LAG3 antibodies (starting from 40 µg/ml). Goat anti-mouse IgG conjugated with HRP (Sigma, US, Cat #: A9309-1 ml) was added then.

[3] = target: T3, monkey (rhesus) LAG3 expressed on HEK293A cells (monkey (rhesus), UniProt A0A5F8A874 23-533); assay: FACS on HEK293A/rh LAG3 cells
T3 construct: whole, on cells; also called HEK293A/rh LAG3
T3 sequence: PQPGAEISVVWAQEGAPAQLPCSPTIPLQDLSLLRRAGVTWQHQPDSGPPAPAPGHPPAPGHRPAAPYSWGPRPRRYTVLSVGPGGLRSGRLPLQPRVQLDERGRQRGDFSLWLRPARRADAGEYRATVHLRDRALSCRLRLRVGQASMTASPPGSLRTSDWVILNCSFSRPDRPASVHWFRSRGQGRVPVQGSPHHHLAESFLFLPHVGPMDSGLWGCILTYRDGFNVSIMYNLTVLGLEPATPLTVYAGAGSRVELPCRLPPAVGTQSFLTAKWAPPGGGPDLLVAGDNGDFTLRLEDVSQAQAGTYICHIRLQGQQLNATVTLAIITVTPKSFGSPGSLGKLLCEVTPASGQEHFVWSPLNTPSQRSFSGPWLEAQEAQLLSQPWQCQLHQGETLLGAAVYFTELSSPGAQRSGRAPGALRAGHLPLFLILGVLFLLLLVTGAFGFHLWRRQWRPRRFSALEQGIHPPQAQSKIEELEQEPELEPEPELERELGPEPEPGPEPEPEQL
Description: Briefly, 10^5 HEK293A cells in 50 μl PBS buffers were seeded into each well of the 96-well plates and then added with 50 μl of serially diluted anti-LAG3 antibodies (5-fold dilution, starting from 40 μg/ml). After incubated at 4° C. for 1 hour, plates were washed 3 times with PBST. Then, an APC coupled Goat Anti-Mouse IgG (BioLegend, US, Cat #: 405308) diluted 500× was added to the plates. After incubation at 4° C. for 1 hour, the plates were washed with PBS for 3 times and then cell fluorescence was monitored using a FACS machine (BD).

[4] = target: T4, hLAG-3-hIg fusion protein (human LAG-3 extracellular domain fused to human Fc); Sino Biological, Cat #: … (human, UniProt P18627 23-450); assay: FACS blocking assay; antibody titrated against 10 µg/ml hLAG-3-hIg binding to MHC II on Daudi cells
T4 construct: extracellular domain; Bought protein; also called LAG3 fusion protein; human LAG3(ECD)-hFc; not shown: human Fc
T4 sequence (looked up): T1 sequence (looked up)
Description: The mixtures were then added and incubated with 2 ×10^5 Daudi cells in 100 μl PBS buffer at 4° C. for 30 minutes. The cells were pelleted (three minutes, 400×g), washed twice with 1×PBS buffer and repelleted, and added and incubated with a recombinant PE-labeled F(ab')2 anti-hIgG Fc (1:200, Life Technologies, USA, Cat #: H10104) at 4° C. for 30 minutes, and washed once with 1×PBS. Analysis of […] binding was carried out with the FACS flow cytometer (BD Bioscience).

EC50 [1]: 4 nM | EC50 [3]: 0.39 nM | EC50 [4]: 13 nM
B1: mouse anti-LAG3 monoclonal antibody 101F4 (antibody, V domains shown)
VH: EVQLEQSGAELVRPGASVTLSCKASGYTFTDYEMHWVKQTPVYGLEWMGAIDPETGGIVYNQRFKGKAILTADKSSSTAYMELRSLTSEDSAVYYCTGAGWGYWGQGTTLTVSS
VL: DIVITQSPSSMYASLGERVTITCKASQDINSYLSWFQQKPGKSPKTLIYRANRLLDGVPSRFSGSGSGQDYSLTISSLEFEDMGLYYCLQYDEFPFTFGSGTKLEIK
binding result [2]: no binding (tested: starting from 40 µg/ml)

EC50 [1]: 1.92 nM | EC50 [3]: 6.5 nM | EC50 [4]: 9.3 nM
B2: mouse anti-LAG3 monoclonal antibody 134G10 (antibody, V domains shown)
VH: EVQLVESGGDLVKPGGSLKLSCAASGFTFSSFGMSWVRQTPDKRLEWVGIISSGGTYTFYPDILKGRFTISRDNAKNTLYLQMSSLKSEDTAMYYCARVYSDYDGRFDYWGQGTTLTVSS
VL: DIVMTQSPSSLSVSAGEKVTMNCKSSQSLLNSGNQKNYLAWYQQKPGQPPKLLIYGASTRESGVPDRFTGSGSGTDFTLTISSVQAEDLAVYYCQNDHSYPLTFGAGTKLELK
binding result [2]: no binding (tested: starting from 40 µg/ml)
